# Laboratory results from patent US8063008B2, “Enzymatic production of peracids using perhydrolytic enzymes” (E. I. du Pont de Nemours and Company, priority 2005, dated 2011).
# What was measured:
# Assay type in all cases: biochemical
# [1] = Enzymatic perhydrolysis of a mixture of diacetin (250 mM), triacetin (88 mM) and monoacetin (192 mM) using lipase and Alcalase at pH 4.0 and 6.5 (Example 23); details: 1 mg lipase, 20 μL Alcalase
# Protocol: Reaction mixtures were prepared containing 1 mg lipase (A “Amano” 12 (Amano), Validase AN (Valley Research), or ICR-110 (BioCatalytics)), and 20 μL Alcalase® (Novozymes) in 1.0 mL of 50 mM buffer (either sodium acetate/acetic acid buffer at pH 4.0, or potassium phosphate buffer at pH 6.5), additionally containing a mixture of diacetin (250 mM), triacetin (88 mM) and monoacetin (192 mM) and hydrogen peroxide (500 mM). […] A portion of the filtered reaction samples was diluted 1:10 with dd water and analyzed for hydrogen peroxide, and the remaining portion of the sample was directly analyzed for peracid using the HPLC assay method (Table 28). Reactions were also run with lipase alone or Alcalase® alone for comparison of peracetic acid concentrations produced without the combination of lipase and Alcalase®.
# [2] = Enzymatic perhydrolysis of triacetin using a combination of lipase and Alcalase at pH 4.0 and 6.5 (Example 22); details: H2O2 500 mM, 1 mg lipase, 20 μL Alcalase
# Protocol: Reaction mixtures were prepared containing 1 mg lipase (A “Amano” 12 (Amano), Validase AN (Valley Research), or ICR-110 (BioCatalytics)), and 20 μL Alcalase® (Novozymes) in 1.0 mL of 50 mM buffer (either sodium acetate/acetic acid buffer at pH 4.0, or potassium phosphate buffer at pH 6.5), additionally containing triacetin (250 mM) and hydrogen peroxide (500 mM). […] A portion of the filtered reaction samples was diluted 1:10 with dd water and analyzed for hydrogen peroxide, and the remaining portion of the sample was directly analyzed for peracid using the HPLC assay method (Table 27). Reactions were also run with lipase alone or Alcalase® alone for comparison of peracetic acid concentrations produced without the combination of lipase and Alcalase®.
# [3] = Protease-catalyzed perhydrolysis of acetamide at pH 6.5 (Example 9); details: pH 6.5, 500 mM H2O2, 1 mg protease
# Protocol: (§1) Into a 4-mL glass vial with stir bar was added 1 mg protease (Table 6) in 0.050 mL of 50 mM potassium phosphate buffer (pH 6.5), 0.900 mL of an aqueous mixture containing either a) acetamide (278 mM) in 50 mM potassium phosphate buffer (pH 6.5) or b) diacetamide (278 mM) in 50 mM potassium phosphate buffer (pH 6.5), and 0.052 mL 30% hydrogen peroxide (500 mM final concentration). […] A portion of the filtered reaction samples was diluted 1:10 with dd water and analyzed for hydrogen peroxide, and the remaining portion of the sample was directly analyzed for peracid using the HPLC assay method (Table 10).
# [4] = Protease-catalyzed perhydrolysis of diacetamide at pH 6.5 (Example 9); details: pH 6.5, 500 mM H2O2, 1 mg protease
# Protocol: as §1
# [5] = Protease-catalyzed perhydrolysis of acetamide at pH 4.0 (Example 6); details: pH 4.0, 500 mM H2O2, 1 mg protease
# Protocol: as §1, with “sodium acetate/acetic acid” for “potassium phosphate”, “4.0),” for “6.5),”, “4.0)” for “6.5)”, “7).” for “10).”
# [6] = Protease-catalyzed perhydrolysis of triacetin at pH 6.5 (Example 8); details: pH 6.5, 500 mM H2O2, 1 mg protease
# Protocol: The analytical procedure described by U. Karst et al. (Anal. Chem., 69 (17):3623-3627 (1997)) was employed, as described herein, for analysis of product mixtures containing peracid and hydrogen peroxide. Briefly, the concentration of peracetic acid (PAA) in analyzed samples ranged from 0.025 mM-10 mM, and the concentration of H2O2 ranged from 0.075 mM-3 mM. Reaction mixtures containing peracid and/or hydrogen peroxide were, if necessary prior to analysis, diluted to produce a concentration of peracid or peroxide in these ranges. […] At the end of 30 minutes, 0.100 mL of 10 mM N,N-diethyl-m-toluamide (DEET, HPLC external standard) was added and the resulting solution analyzed by HPLC: Supelco Discovery C8 10-cm column with pre-column, 10-μL injection, UV detection at 225 nm, solvent A: acetonitrile, solvent B: deionized water, 1 mL/min gradient as follows: […]
# as §1, with “sodium” for “potassium”, “triacetin” for “either a) acetamide”, “mM” for “mM potassium phosphate buffer (pH 6.5) or b) diacetamide (278 mM) in 50 mM potassium”, “9).” for “10).”
# [7] = Protease-catalyzed perhydrolysis of triacetin at pH 4.0 (Example 7); details: pH 4.0, 500 mM H2O2, 1 mg protease
# Protocol: as §1, with “sodium acetate/acetic acid” for “potassium phosphate”, “4.0),” for “6.5),”, “triacetin” for “either a) acetamide”, “4.0),” for “6.5) or b) diacetamide (278 mM) in 50 mM potassium phosphate buffer (pH 6.5),”, “8).” for “10).”
# [8] = Protease-catalyzed perhydrolysis of diacetamide at pH 4.0 (Example 6); details: pH 4.0, 500 mM H2O2, 1 mg protease
# Protocol: as §1, with “sodium acetate/acetic acid” for “potassium phosphate”, “4.0),” for “6.5),”, “4.0)” for “6.5)”, “7).” for “10).”
Molecule,"peracetic acid (ppm), 5 min ([1]; pH 4.0, H2O2 500 mM) [ppm]","peracetic acid (ppm), 30 min ([1]; pH 4.0, H2O2 500 mM) [ppm]","peracetic acid (ppm), 5 min ([1]; pH 6.5, H2O2 500 mM) [ppm]","peracetic acid (ppm), 30 min ([1]; pH 6.5, H2O2 500 mM) [ppm]","peracetic acid (ppm), 5 min ([2]; pH 4.0, triacetin 250 mM) [ppm]","peracetic acid (ppm), 30 min ([2]; pH 4.0, triacetin 250 mM) [ppm]","peracetic acid (ppm), 5 min ([2]; pH 6.5, triacetin 250 mM) [ppm]","peracetic acid (ppm), 30 min ([2]; pH 6.5, triacetin 250 mM) [ppm]","acetamide (250 mM) peracetic acid (ppm), 5 min ([3]; 5 min) [ppm]","acetamide (250 mM) peracetic acid (ppm), 30 min ([3]; 30 min) [ppm]","diacetamide (250 mM) peracetic acid (ppm), 5 min ([4]; 5 min) [ppm]","diacetamide (250 mM) peracetic acid (ppm), 30 min ([4]; 30 min) [ppm]","acetamide (250 mM) peracetic acid (ppm), 5 min ([5]; 5 min) [ppm]","acetamide (250 mM) peracetic acid (ppm), 30 min ([5]; 30 min) [ppm]","triacetin (250 mM) peracetic acid (ppm), 5 min ([6]; 5 min) [ppm]","triacetin (250 mM) peracetic acid (ppm), 30 min ([6]; 30 min) [ppm]","triacetin (250 mM) peracetic acid (ppm), 5 min ([7]; 5 min) [ppm]","triacetin (250 mM) peracetic acid (ppm), 30 min ([7]; 30 min) [ppm]","diacetamide (250 mM) peracetic acid (ppm), 5 min ([8]; 5 min) [ppm]","diacetamide (250 mM) peracetic acid (ppm), 30 min ([8]; 30 min) [ppm]"
"Alcalase ®: Novozymes; subtilisin Carlsberg or subtilisin A from Bacillus licheniformis (protein, UniProt P00780 106-379, looked up) Subtilisin Carlsberg: AQTVPYGIPLIKADKVQAQGFKGANVKVAVLDTGIQASHPDLNVVGGASFVAGEAYNTDGNGHGTHVAGTVAALDNTTGVLGVAPSVSLYAVKVLNSSGSGSYSGIVSGIEWATTNGMDVINMSLGGASGSTAMKQAVDNAYAKGVVVVAAAGNSGSSGNTNTIGYPAKYDSVIAVGAVDSNSNRASFSSVGAELEVMAPGAGVYSTYPTNTYATLNGTSMASPHVAGAAALILSKHPNLSASQVRNRLSSTATYLGSSFYYGKGLINVEAAAQ",0,20,110,210,0,0,180,330,,,,,,,,,,,,
"Papain: Papain, papaya latex, Sigma P3125 (protein, UniProt P00784 134-345, looked up) Papain: IPEYVDWRQKGAVTPVKNQGSCGSCWAFSAVVTIEGIIKIRTGNLNEYSEQELLDCDRRSYGCNGGYPWSALQLVAQYGIHYRNTYPYEGVQRYCRSREKGPYAAKTDGVRQVQPYNEGALLYSIANQPVSVVLEAAGKDFQLYRGGIFVGPCGNKVDHAVAAVGYGPNYILIKNSWGTGWGENGYIRIKRGTGNSYGVCGLYTSSFYPVKN",,,,,,,,,199,157,342,187,81,105,203,142,85,48,135,172
